# Laboratory results reported in US20260184815A1.
# Positions count from the first letter of the chain named.
# B1: DX-2922 (antibody, V domains shown)
# VH: EVQLLESGGGLVQPGGSLRLSCAASGFTFSHYLMTWVRQAPGKGLEWVSYISPSGGHTIYADSVKGRFTISRDNSKNTLYLQMNSLRAEDTAVYYCARVARGIAARSRTSYFDYWGQGTLVTVSS
# VL: EIVLTQSPGTLSLSPGERATLSCRTSQFVNSNYLAWYQQKPGQAPRLLIYGASSRATGIPDRFSGSGSGTDFTLTISRLEPEDFAVYYCQQSSRTPWTFGQGTKVEIK
# B2: X115-B07 (antibody, V domains shown)
# VH: B1 VH with R98M, A100G, R101Q, A104R, A105G, D113A, Y114Q
# VL: B1 VL
# B3: M145-D11 (Fab, V domains shown)
# VH: EVQLLESGGGLVQPGGSLRLSCAASGFTFSHYRMSWVRQAPGKGLEWVSSIYPSGGRTVYADSVKGRFTISRDNSKNTLYLQMNSLRAEDTAVYYCAKDKFEWRLLFRGIGNDAFDIWGQGTMVTVSS
# VL: QSVLTQPPSVSVSPGQTASITCSGDKLGDKYTSWYQQRPGQSPVLVIYQDIKRPSGIPERFSGSNSGNTATLTISGTQAMDEADYYCQAWDSPNARVFGSGTKVTVL
# B4: M6-D09 (antibody, V domains shown)
# VH: EVQLLESGGGLVQPGGSLRLSCAASGFTFSFYYMVWVRQAPGKGLEWVSVIYPSGGITVYADSVKGRFTISRDNSKNTLYLQMNSLRAEDTAVYYCARDKWAVMPPYYYYAMDVWGQGTTVTVSS
# VL: DIQMTQSPSSLSASVGDRVTITCRASQSIRNYLNWYQQKPGKAPNLLIYAASTLQSGVPARFSGSGSGTDFTLTISSLQPEDFATYYCQQLSGYPHTFGQGTKLEIK
# B5: M06-D09 (antibody, V domains shown)
# VH: B4 VH
# VL: B4 VL
# B6: M35-G04 (antibody, V domains shown)
# VH: EVQLLESGGGLVQPGGSLRLSCAASGFTFSYYHMSWVRQAPGKGLEWVSVISPSGGSTKYADSVKGRFTISRDNSKNTLYLQMNSLRAEDTAVYYCARGGSSDYAWGSYRRPYYFDYWGQGTLVTVSS
# VL: DIQMTQSPATLSLSPGERATLSCRASQSVSSYLAWYQQKPGQAPRLLIYDASNRATGIPARFSGSGSGTDFTLTISSLEPEDFAVYYCQQRSNWPRGFTFGPGTKVDIK
# B7: X115-A03 (antibody, V domains shown)
# VH: EVQLLESGGGLVQPGGSLRLSCAASGFTFSHYIMMWVRQAPGKGLEWVSGIYSSGGITVYADSVKGRFTISRDNSKNTLYLQMNSLRAEDTAVYYCAWRRIGVPRRDSFDMWGQGTMVTVSS
# VL: DIQMTQSPSTLSASVGDRVTITCRASQSISSWLAWYQQKPGKAPKLLIYKASTLESGVPSRFSGSGSGTEFTLTISSLQPDDFATYYCQQYNTYWTFGQGTKVEIK
# B8: X115-F02 (Fab, V domains shown)
# VH: B7 VH with W98Y, S108E, M111I
# VL: B7 VL
# B9: X115-G04 (antibody, V domains shown)
# VH: B7 VH with W98Y, I101T, S108E, M111I
# VL: B7 VL
# B10: X115-D01 (antibody, V domains shown)
# VH: EVQLLESGGGLVQPGGSLRLSCAASGFTFSIYSMHWVRQAPGKGLEWVSSIYPSRGMTWYADSVKGRFTISRDNSKNTLYLQMNSLRAEDTAVYYCAYRRTGIPRRDAFDIWGQGTMVTVSS
# VL: B7 VL
# B11: M29-D09 (Fab, V domains shown)
# VH: EVQLLESGGGLVQPGGSLRLSCAASGFTFSWYTMVWVRQAPGKGLEWVSYIYPSGGATFYADSVKGRFTISRDNSKNTLYLQMNSLRAEDTAVYYCAMGSYDYIWGFYSDHWGQGTLVTVSS
# VL: QSALTQPPTVSVSPGQTARITCSGNKLGDKYVAWYQQKPGQSPMLVIYQDTKRPSRVSERFSGSNSANTATLSISGTQALDEADYYCQAWDSSIVIFGGGTRLTVL
# Assays:
# [1] = target: pKal catalytic domain Mutant 4 (human) (UniProt P03952); assay: equilibrium Ki,app, fluorogenic substrate, tight binding fit
# [2] = target: pKal catalytic domain Mutant 4 (human) (UniProt P03952); assay: equilibrium Ki,app, enzyme inhibition with fluorogenic substrate, tight binding fit
# Sequence of pKal catalytic domain Mutant 4 (human) (P03952 391-638, change not shown): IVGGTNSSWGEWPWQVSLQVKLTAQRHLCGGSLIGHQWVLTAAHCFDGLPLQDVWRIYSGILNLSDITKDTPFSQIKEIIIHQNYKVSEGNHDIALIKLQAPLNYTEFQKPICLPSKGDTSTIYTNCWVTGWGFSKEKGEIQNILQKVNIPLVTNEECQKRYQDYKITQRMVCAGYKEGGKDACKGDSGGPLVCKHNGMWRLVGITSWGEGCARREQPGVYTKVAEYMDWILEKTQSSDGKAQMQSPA
Ki [1] [nM],Ki [2] [nM],Binder
0.25,0.25,B1
0.14,0.14,B2
0.21,0.21,B3
2.9,,B4
,2.9,B5
0.8,0.8,B6
0.13,0.13,B7
0.1,0.1,B8
0.3,0.3,B9
0.12,0.12,B10
0.39,0.39,B11
